The labels stand for the following.
B1: TOR1AIP2 (parent)
chain: DGAGRTWQDSDTVKLLVDLELSYG

This is an account of results in the supplement of paper PMC10567573.
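Also: lentivirally expressed fusions sorted by FACS into six bins by GFP to DsRed ratio, PSI derived from sequencing read proportions per bin multiplied by bin number.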

The variants in the data set derive from B1. Kind of data set: protein stability index of a GFP-peptide fusion (GPS, HEK-293T) (PSI 1-6); higher = more stable. The conditions noted are these: c terminus: a fixed tail appended.
Turning to DGAGRTWTDSDTVKLLVDLELSYG, the protein stability index worked out at 4.32.
Under DGAGRTWKDSDTVKLLVDLELSYG stands 1.38; under DGAGRTWGDSDTVKLLVDLELSYG, 3.19; under DGAGRTWNDSDTVKLLVDLELSYG, 2.26.
The same measure for DGAGRTWYDSDTVKLLVDLELSYG: 1.56; for DGAGRTWRDSDTVKLLVDLELSYG: 2.88.
The same measure for DGAGRTWPDSDTVKLLVDLELSYG: 2.49; for DGAGRTWMDSDTVKLLVDLELSYG: 2.09.
In the case of DGAGRTWSDSDTVKLLVDLELSYG, the protein stability index was 3.33.
Consider DGAGRTWQDSDRVKLLVDLELSYG, for which the protein stability index came out at 2.59.
Under DGAGRTWQDSDEVKLLVDLELSYG stands 3.43; under DGAGRTWQDSDKVKLLVDLELSYG, 2.6; under DGAGRTWQDSDQVKLLVDLELSYG, 1.6.
Under DGAGRTWQDSDNVKLLVDLELSYG stands 2.79.
Under DGAGRTWQDSDSVKLLVDLELSYG stands 2.28; under DGAGRTWQDSDWVKLLVDLELSYG, 1.87; under DGAGRTWQDSDVVKLLVDLELSYG, 2.03.
As for DGAGRTWQDSDHVKLLVDLELSYG, the protein stability index worked out at 1.35.
The same measure for DGAGRTWQDSDYVKLLVDLELSYG: 1.49; for DGAGRTWQDSDFVKLLVDLELSYG: 1.4; for DGAGRTWQDSDMVKLLVDLELSYG: 1.58.
Regarding DGAGRTWQDSDDVKLLVDLELSYG, the protein stability index came out at 3.56.
As to DGAGRTWQDSDIVKLLVDLELSYG, the protein stability index came to 1.54.
The same measure for DGAGRTWQDSATVKLLVDLELSYG: 2.27; for DGAGRTWQDSQTVKLLVDLELSYG: 3.09; for DGAGRTWQDSNTVKLLVDLELSYG: 2.14.
As to DGAGRTWQDSPTVKLLVDLELSYG, the protein stability index worked out at 1.66.
On to DGAGRTWQDSKTVKLLVDLELSYG, for which the protein stability index came to 1.53.
Turning to DGAGRTWQDSETVKLLVDLELSYG, the protein stability index amounted to 2.08.
The same measure for DGAGRTWQDSFTVKLLVDLELSYG: 2.77; for DGAGRTWQDSITVKLLVDLELSYG: 3.92.
Under DGAGRTWQDSRTVKLLVDLELSYG stands 1.13; under DGAGRTWQDSGTVKLLVDLELSYG, 1.18; under DGAGRTWQDSSTVKLLVDLELSYG, 1.52.
As to DGAGRTWQDSDTVKLDVDLELSYG, the protein stability index amounted to 3.52.
The same measure for DGAGRTWQDSDTVKLCVDLELSYG: 1.99.
Under DGAGRTWQDSDTVKLEVDLELSYG stands 3.69.
Under DGAGRTWQDSDTDKLLVDLELSYG stands 5.09.
For the variant DGAGRTWQDSDTPKLLVDLELSYG, the protein stability index is 3.82.
As to DGAGRTWQDSDTLKLLVDLELSYG, the protein stability index worked out at 2.07.
Consider DGAGRTWQDSDTMKLLVDLELSYG, for which the protein stability index stood at 2.77.
The same measure for DGAGRTWQDSDTKKLLVDLELSYG: 2.18.
Regarding DGAGRTWQDSDTTKLLVDLELSYG, the protein stability index was 2.44.
The same measure for DGAGRTWQDSDTRKLLVDLELSYG: 2.7; for DGAGRTWQDSDTIKLLVDLELSYG: 1.06.
Under DGAGRTWQDSDTFKLLVDLELSYG stands 1.37; under DGAGRTWQDSDTNKLLVDLELSYG, 3.08.
Regarding DGAGRTWQDSDTEKLLVDLELSYG, the protein stability index was 3.95.
Under DGAGRTWQDSDTCKLLVDLELSYG stands 2.04; under DGAGRTWQDGDTVKLLVDLELSYG, 1.01.
The same measure for DGAGRTWQDNDTVKLLVDLELSYG: 1.6.
Consider DGAGRTWQDADTVKLLVDLELSYG, for which the protein stability index worked out at 1.92.
Under DGAGRTWQDHDTVKLLVDLELSYG stands 1.04.
Under DGAGRTWQDTDTVKLLVDLELSYG stands 1.99; under DGAGRTWQDPDTVKLLVDLELSYG, 2.36.
In the case of DGAGRTWQDEDTVKLLVDLELSYG, the protein stability index worked out at 3.06.
Under DGAGRTWQDQDTVKLLVDLELSYG stands 1.9; under DGAGRTWQDCDTVKLLVDLELSYG, 2.18; under DGAGRTWQDDDTVKLLVDLELSYG, 3.02.
The same measure for DGAGRTWQDVDTVKLLVDLELSYG: 2.92.
The same measure for DGAGRTWQDRDTVKLLVDLELSYG: 2.08.
Turning to DGAGRTWQVSDTVKLLVDLELSYG, the protein stability index was found to be 2.09.
The same measure for DGAGRTWQNSDTVKLLVDLELSYG: 2.92; for DGAGRTWQESDTVKLLVDLELSYG: 1.5; for DGAGRTWQHSDTVKLLVDLELSYG: 1.09.
Under DGAGRTWQRSDTVKLLVDLELSYG stands 3.52; under DGAGRTWQDSDTVKGLVDLELSYG, 3.75; under DGAGRTWQDSDTVKRLVDLELSYG, 3.9.
Under DGAGRTWQDSDTVKNLVDLELSYG stands 4.18; under DGAGRTWQDSDTVKSLVDLELSYG, 4.04; under DGAGRTWQDSDTVKELVDLELSYG, 4.54.
On to DGAGRTWQDSDTVKHLVDLELSYG, for which the protein stability index was 3.54.
For DGAGRTWQDSDTVKVLVDLELSYG, the protein stability index amounted to 2.53.
The same measure for DGAGRTWQDSDTVKWLVDLELSYG: 2.07; for DGAGRTWQDSDTVKALVDLELSYG: 3.7.
Under DGAGRTWQDSDTVKTLVDLELSYG stands 3.67.
Under DGAGRTWQDSDTVKQLVDLELSYG stands 4.28; under DGAGRTWQDSDTVKPLVDLELSYG, 3.82.
For the variant DGAGRTWQDSDTVKFLVDLELSYG, the protein stability index was determined as 2.18.
For the variant DGAGRTWQDSDTVKKLVDLELSYG, the protein stability index worked out at 4.4.
Under DGAGRTWQDSDTVKYLVDLELSYG stands 1.84; under DGAGRTWQDSDTVKILVDLELSYG, 1.75.
Under DGAGRTWQDSDTVHLLVDLELSYG stands 1.42.
In the case of DGAGRTWQDSDTVALLVDLELSYG, the protein stability index amounted to 1.96.
The same measure for DGAGRTWQDSDTVQLLVDLELSYG: 1.63; for DGAGRTWQDSDTVGLLVDLELSYG: 1.91; for DGAGRTWQDSDTVSLLVDLELSYG: 1.61.
For the variant DGAGRTWQDSDTVPLLVDLELSYG, the protein stability index came to 3.03.
The same measure for DGAGRTWQDSDTVWLLVDLELSYG: 1.5; for DGAGRTWQDSDTVRLLVDLELSYG: 1.83; for DGAGRTWQDSDTVELLVDLELSYG: 1.88.
The same measure for DGAGRTWQDSDTVNLLVDLELSYG: 1.74.
As to DGAGRTWQDSDTVDLLVDLELSYG, the protein stability index came to 1.91.
Under DGAGRTWQDSDTVTLLVDLELSYG stands 1.61.
